Results: paper PMC12269497, “Dimerization of the BAR domain–containing protein FAM92A modulates lipid binding and interaction with CBY1” (The Journal of Biological Chemistry, 2025)
Blank lines part the entries; values can stand above or below the molecule they belong to.

Assays:
[1] = target: mouse FAM92A BAR domain (amino acids 70-283), untagged (mouse); test: ITC; CBY1 variants (200–300 μM) in the syringe, FAM92A BAR or its dimerization mutants (100–120 μM) in the cell; 25 °C; 50 mM Tris pH 7.5, 1 mM DTT, 1 mM EDTA, 100 mM NaCl; one-site binding model
[2] = target: Trx-Strep-tagged mouse FAM92A BAR domain (amino acids 70-283) (mouse); test: BLI; Trx-Strep-tagged FAM92A BAR (1 μM) loaded on Strep-Tactin XT probes, His-tagged CBY1 variants in solution; PBS with 0.02% Tween-20 and 0.2% BSA; 1:1 binding model
[3] = target: Trx-tagged full-length mouse FAM92A (mouse); test: SEC-MALS; typically 200 μl at 70 μM injected; Superose 12 10/300 GL; 50 mM Tris pH 7.5, 1 mM DTT, 1 mM EDTA, 100 mM NaCl
[4] = target: mouse FAM92A BAR domain (amino acids 70-283), untagged (mouse); test: as above
[5] = target: mouse FAM92A BAR domain Mu1 (K176, K178, R179 to glutamic acid) (mouse); test: as above
[6] = target: mouse FAM92A BAR domain Mu2 (R201, R203, R205 to glutamic acid) (mouse); test: as above
[7] = target: mouse FAM92A BAR domain Mu3 (R108, K109, R112, R114, K116 to glutamic acid) (mouse); test: as above
[8] = target: mouse FAM92A BAR domain Mu4 (K169, K183, K194 to glutamic acid) (mouse); test: as above
[9] = target: mouse FAM92A BAR domain Mu5 (R72, K83, K94 to glutamic acid) (mouse); test: as above
[10] = target: T1, Trx-Strep-tagged mouse FAM92A BAR domain (amino acids 70-283) (mouse); test: BLI
T1 chain: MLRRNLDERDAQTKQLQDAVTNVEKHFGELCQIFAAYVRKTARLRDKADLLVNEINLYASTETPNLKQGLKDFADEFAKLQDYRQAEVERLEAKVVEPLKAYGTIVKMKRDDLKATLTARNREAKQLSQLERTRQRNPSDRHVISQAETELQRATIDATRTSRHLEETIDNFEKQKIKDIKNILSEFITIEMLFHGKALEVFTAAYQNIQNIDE

[11] = target: the molecule itself; test: SEC-MALS; typically 200 μl at 70 μM injected; Superose 12 10/300 GL; 50 mM Tris pH 7.5, 1 mM DTT, 1 mM EDTA, 100 mM NaCl

- Kd [1]: 2.8 µM
- Kd [2]: 5.6 µM
Molecule: MBP-His-tagged mouse CBY1 4E (L77E, L84E, L91E, L98E) (from UniProt Q9D1C2 1-127) (natural protein)

- stoichiometry N [3]: 2
Molecule: Trx-tagged full-length mouse FAM92A (natural protein)

- stoichiometry N [4]: 2
Molecule: mouse FAM92A BAR domain (amino acids 70-283), untagged (domain or fragment)

- stoichiometry N [5]: 2
Molecule: mouse FAM92A BAR domain Mu1 (K176, K178, R179 to glutamic acid) (domain or fragment)

- stoichiometry N [6]: 2
Molecule: mouse FAM92A BAR domain Mu2 (R201, R203, R205 to glutamic acid) (domain or fragment)

- stoichiometry N [7]: 2
Molecule: mouse FAM92A BAR domain Mu3 (R108, K109, R112, R114, K116 to glutamic acid) (domain or fragment)

- stoichiometry N [8]: 2
Molecule: mouse FAM92A BAR domain Mu4 (K169, K183, K194 to glutamic acid) (domain or fragment)

- stoichiometry N [9]: 2
Molecule: mouse FAM92A BAR domain Mu5 (R72, K83, K94 to glutamic acid) (domain or fragment)

- Kd [10]: 10.8 µM
- Kd [1]: 3.6 µM
- Kd [2]: 10 µM
B1: Trx-His-tagged mouse CBY1 N-terminal region (amino acids 1-70) (domain or fragment)
chain: MPLFGSIFSPKKTPPRKSASLSNLHSLDRSTRELELGLDYGTPTMNLAGQSLKFENGQWVADSVISGGVD

- Kd [1]: 0.15 µM
- Kd [2]: 0.25 µM
B2: MBP-His-tagged full-length mouse Chibby1 (CBY1) (natural protein, UniProt Q9D1C2 1-127, looked up)
chain: MPLFGSIFSPKKTPPRKSASLSNLHSLDRSTRELELGLDYGTPTMNLAGQSLKFENGQWVADSVISGGVDRRETQRLRKRNQQLEEENNLLRLKVDILLDMLSETTAESHLKDKELDELKVTNRRRK
notes: mouse CBY1, GenBank NP_082910.1, amino acids 1-127; also called CBY1 FL; CBY1-FL; source: E. coli BL21 (DE3), purified (Ni-NTA, SEC); not shown: MBP, N-terminal, kept; His6, N-terminal, kept
- stoichiometry N [11]: 2

B3: Trx-tagged mouse CBY1 coiled-coil domain (amino acids 61-127) (domain or fragment, UniProt Q9D1C2 61-127, looked up)
chain: ADSVISGGVDRRETQRLRKRNQQLEEENNLLRLKVDILLDMLSETTAESHLKDKELDELKVTNRRRK
notes: mouse CBY1, GenBank NP_082910.1, amino acids 61-127 (C-terminal coiled-coil domain); also called CBY1 CC; source: E. coli BL21 (DE3), purified; not shown: Trx, N-terminal, kept
- stoichiometry N [11]: 2
